Data from patent US20260062488A1 (AbbVie / Abbott, published 2026).
Changes are numbered by the printed parent chain.

What was measured:
human α4β7 integrin [1] = target: T1, human α4β7 integrin (human, UniProt P13612 34-1032; P26010 20-798); assay: FACS binding, human CD4+CD45RO+ T cells, summary table
T1 construct: also called hα4β7; a4b7

cynomolgus α4β7 integrin [2] = target: T2, cynomolgus α4β7 integrin (cynomolgus monkey); assay: blockade of CHOK1-cα4β7 cell adhesion to MAdCAM-1
T2 construct: whole, on cells; On CHOK1-cα4β7 cells or cynomolgus blood lymphocytes; also called cα4β7; cyno α4β7

cynomolgus α4β7 integrin [3] = target: T2, cynomolgus α4β7 integrin; assay: ratio of cyno to human adhesion-blockade potency, summary table
cynomolgus α4β7 integrin [4] = target: T2, cynomolgus α4β7 integrin; assay: blockade of CHOK1-cα4β7 cell adhesion to MAdCAM-1, representative experiment; the two IC50 lines under the plot bear no name: the lower one is given to Ab-m1, whose curve lies clearly left of Ab-Vedo's (midpoint near log -1.6 ug/ml)
human α4β7 integrin [5] = target: T1, human α4β7 integrin; assay: FACS, primary human CD4+ memory T cells
human α4β7 integrin [6] = target: T1, human α4β7 integrin; assay: inhibition of MAdCAM-1 binding to human CD4+CD45RO+ T cells
human α4β7 integrin [7] = target: T1, human α4β7 integrin; assay: blockade of HuT78 cell adhesion to MAdCAM-1
human α4β7 integrin [8] = target: T1, human α4β7 integrin; assay: blockade of HuT78 cell adhesion to MAdCAM-1; remark: listed apart in the source
human α4β7 integrin [9] = target: T1, human α4β7 integrin; assay: row IC50 (pM) HuT78 of the binning table (assay not explained, presumably adhesion to MAdCAM-1)
cynomolgus α4β7 integrin [10] = target: T2, cynomolgus α4β7 integrin; assay: MadCAM-1/cα4β7 potency (adhesion blockade), summary table
human α4β7 integrin [11] = target: T1, human α4β7 integrin; assay: MadCAM-1/HuT78 potency (adhesion blockade), summary table
human α4β7 integrin [12] = target: T1, human α4β7 integrin; assay: blockade of HuT78 cell adhesion to plate-bound MAdCAM-1, representative experiment; the two IC50 lines under the plot bear no name: the lower one is given to Ab-m1, whose curve lies left of Ab-Vedo's (midpoint near log -2.1 ug/ml)
human α4β7 integrin [13] = target: T1, human α4β7 integrin; assay: FACS titration on BaF3-hα4β7
cynomolgus α4β7 integrin [14] = target: T2, cynomolgus α4β7 integrin; assay: blockade of CHOK1-cα4β7 cell adhesion to MAdCAM-1; remark: listed apart in the source
human α4β7 integrin [15] = target: T1, human α4β7 integrin; assay: blockade of MAdCAM-1 mediated HuT78 cell adhesion
cynomolgus α4β7 integrin [16] = target: T2, cynomolgus α4β7 integrin; assay: blockade of CHOK1/cα4β7 adhesion to MAdCAM-1
human α4β7 integrin [17] = target: T1, human α4β7 integrin; assay: FACS on α4β7-expressing HuT78 cells
human α4β7 integrin [18] = target: T1, human α4β7 integrin; assay: FACS, primary human CD4+ memory T cells (CD4+CD45RO+), one whole blood

B1: Ab-m1 (antibody, V domains shown)
VH: EVQLQQSVAELVRPGASVKLSCTTSGFNIKNTYMHWVKQRPKQGLEWIGRIDPANGHTEYAPKFQGKATITADTSSNTAYLHLSSLTSDDTAIYYCYYVDSWGQGTTLTVSS
VL: DILMTQSPSSMSVSLGDTVSITCHASQGISDNIGWLQQRPGKSFKGLIYHGTNLEDGVPSRFSGSGSGADYSLTISSLESEDFADYYCVQYAQFPWTFGGGTTLEIK
notes: Hybridoma antibody, mouse IgG1/kappa; also called murine antibody Ab-m1; Mouse anti-human α4β7 [mu IgG1/k
Human α4β7 integrin [1]
  EC50: 0.0098 nM
Cynomolgus α4β7 integrin [2]
  IC50: 0.0658 nM
Cynomolgus α4β7 integrin [3]
  Cyno x-reactivity: 4 fold
Cynomolgus α4β7 integrin [4]
  IC50: 0.165 nM
Human α4β7 integrin [5]
  EC50: 0.0098 nM
Human α4β7 integrin [6]
  IC50: 0.0637 nM
Human α4β7 integrin [7]
  IC50: 0.0228 nM
Human α4β7 integrin [8]
  IC50: 0.0555 nM
Human α4β7 integrin [9]
  IC50: 0.0447 nM
Cynomolgus α4β7 integrin [10]
  IC50: 0.201 nM
Human α4β7 integrin [11]
  IC50: 0.0555 nM
Human α4β7 integrin [12]
  IC50: 0.0511 nM
Human α4β7 integrin [13]
  EC50: 0.474 nM
Cynomolgus α4β7 integrin [14]
  IC50: 0.201 nM

B2: Ab-h1.5 (antibody, human IgG1, V domains shown)
VH: EVQLVQSGAEVKKPGSSVKVSCTTSGFNIKNTYMHWVKQRPGQGLEWIGRIDPANGHTEYAPKFQGKATITADESTNTAYLELSSLRSEDTAVYYCYYVDSWGQGTTVTVSS
VL: DIQMTQSPSSLSASVGDRVTITCHASQGISDNIGWLQQKPGKSFKGLIYHGTNLEDGVPSRFSGSGSGADYTLTISSLQPEDFATYYCVQYAQFPWTFGGGTKVEIKR
Human α4β7 integrin [15]
  IC50: 0.0091 nM

B3: Ab-h1.8 (antibody, human IgG1, V domains shown)
VH: B2 VH with T23K, T24A, K38R, R40A, K67R, A68V, L81M
VL: B2 VL
Human α4β7 integrin [15]
  IC50: 0.0138 nM

B4: Ab-h1.9 (antibody, human IgG1, V domains shown)
VH: B2 VH with T23K, T24A, K38R, R40A, K67R, A68V, L81M
VL: DIQMTQSPSSLSASVGDRVTITCHASQGISDNIGWLQQKPGKSFKLLIYHGTNLEDGVPSRFSGSGSGTDYTLTISSLQPEDFATYYCVQYAQFPWTFGGGTKVEIK
notes: Humanized, human IgG1 and kappa constant regions; also called Ab-H1.9 (parental)
Human α4β7 integrin [15]
  IC50: 0.0114 nM
Cynomolgus α4β7 integrin [16]
  IC50: 0.0365 nM

B5: Ab-h1.6 (antibody, human IgG1, V domains shown)
VH: B2 VH
VL: B4 VL
Human α4β7 integrin [15]
  IC50: 0.0081 nM

B6: Ab-h1.9a (antibody, V domains shown)
VH: B2 VH with T23K, T24A, K38R, R40A, G56K, Q65L, K67R, A68V, L81M, D100A
VL: B4 VL with G28E
notes: Liability-engineered clone converted to IgG format [hu IgG1/k]; constant regions of the tested mAb not specified
Human α4β7 integrin [17]
  binding result: binds

B7: Ab-h1.9b (antibody, V domains shown)
VH: B2 VH with T23K, T24A, K38R, R40A, N55R, Q65S, K67R, A68V, L81M, S101Q
VL: B4 VL with G28D
notes: as for B6
Human α4β7 integrin [17]
  binding result: binds

B8: Ab-h1.9e (antibody, V domains shown)
VH: B2 VH with T23K, T24A, K38R, R40A, N55G, Q65I, K67R, A68V, L81M, D100A
VL: B4 VL with G28E
notes: as for B6
Human α4β7 integrin [17]
  binding result: binds

B9: Ab-c1 (antibody, human IgG1, V domains shown)
VH: B1 VH
VL: B1 VL
notes: Ab-m1's variable regions with human IgG1/k constant regions; also called murine-human chimera Ab-c1; Chimeric anti-human α4β7 [hu IgG1/k
Cynomolgus α4β7 integrin [2]
  IC50: 0.0864 nM
Human α4β7 integrin [7]
  IC50: 0.0137 nM
Human α4β7 integrin [18]
  EC50: 0.0039 nM
